Article PMC10954664

Molecular target: Cysless ATL1_(cyto)-K400C (human) (UniProt Q8WXF7)
Test: single-molecule photobleaching step counting (TIRF); LD655-labelled, biotinylated ATL1cyto-K mixed at ~2 μM with 1 mM GTPγS or GDP/AlF4-, diluted and immobilised (~0.3 nM) in a streptavidin-coated microfluidic chamber

Cysless ATL1_(cyto)-K400C (from UniProt Q8WXF7 1-447) (domain or fragment)
stoichiometry N: 2
